# Measured values reported in the supplement of paper PMC10065799, “High-throughput profiling of sequence recognition by tyrosine kinases and SH2 domains using bacterial peptide display” (eLife, 2023).
# System: Fer (mouse)
# Test: phosphorylation enrichment, bacterial display (enrichment ratio); higher = better substrate or ligand; peptides without Tyr show the background
# 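Note: 11-residue human phosphosite peptides and single-mutation variants displayed on the E. coli surface, counted by deep sequencing, each peptide's frequency after selection divided by its frequency in the unselected input library; frequency after pTyr selection over input frequency; kinase dosed for 20-30% of maximal phosphorylation in three min.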
row,Sequence,phosphorylation enrichment
1,DEEDFYQGSME [ASCC1_Y36],0.798
2,HRGHLYLAIEF [TEK_Y899_Y897H_YF],1.38
3,EEQKRYFNAMK [SCN5A_Y1494_K1493R_YF],0.424
4,EEGESHVCSSD [DCX_Y125_Y125H],0.519
5,DFPGNYSGFDD [POLR1C_Y33_YF],0.408
6,KPSLKYVTYGN [GALNTL5_Y404_G401S],0.417
7,KYRREYILSLE [GPC3_Y299_W296R],0.534
8,IETGRYEILTE,0.464
9,KELAPYDENCF [RPS19_Y48_W52C],0.632
10,YENGEYIVRQG [PRKG1_Y247_I249V],0.483
11,AAFNRYDQERF [CDC73_Y293_YF],0.463
12,RFLRGYEQDAY [HLA-A_Y137_R138E],0.289
13,KPGVNYYFRVS,0.483
14,RISGVYKLPPD [ANGPTL7_Y145],0.5
15,KHCEDYVCSYN [DSC1_Y846],0.506
16,MAQDIYRASFF [ALK_Y1278_R1275Q_YF],0.446
17,GHMYAYDWISI [BEST1_Y227_L224M],14.7

row,Sequence,phosphorylation enrichment
1,PECEWYKNGVK [TTN_Y2112],0.719
2,SNYRAYATEPH [TNNI3_Y29],0.379
3,VPDTNYTSDEE [STK33_Y439_A437T],0.511
4,KKRSVYLKVLF [CC2D2A_Y683],0.478
5,KMGNEYVTKGQ [MYH7_Y410_V406M],0.385
6,QLCVSYPGGYT [PROS1_Y259_N258S],0.591
7,QKINKYLTVPA [SLC9A1_Y683_N682K],0.567
8,SLALFYRNVYH [RBL1_Y792_K794N],0.45
9,EVQKDYEHLFK [PAM16_Y77_N76D],0.421
10,CNNFIYGGCRG [SPINT2_Y163],0.371
11,SRVTQYERDFE [SNX1_Y463],0.419
12,HQEPVCSVAFS [TBL1X_Y509_Y509C],0.874
13,GRPMDYQVSIT [OTOF_Y254],0.508
14,FQEPVYSVAFS [TBL1X_Y509_H504Y_YF],16.6
15,LNLKEYNLVGG [GNAQ_Y356],0.685
16,NQDRTYFESVR [SPEN_Y632_YF],0.665

# Target: EPHB1 (UniProt P54762)
# Test: as above
# EPHB1, sequence (P54762 whole entry, looked up): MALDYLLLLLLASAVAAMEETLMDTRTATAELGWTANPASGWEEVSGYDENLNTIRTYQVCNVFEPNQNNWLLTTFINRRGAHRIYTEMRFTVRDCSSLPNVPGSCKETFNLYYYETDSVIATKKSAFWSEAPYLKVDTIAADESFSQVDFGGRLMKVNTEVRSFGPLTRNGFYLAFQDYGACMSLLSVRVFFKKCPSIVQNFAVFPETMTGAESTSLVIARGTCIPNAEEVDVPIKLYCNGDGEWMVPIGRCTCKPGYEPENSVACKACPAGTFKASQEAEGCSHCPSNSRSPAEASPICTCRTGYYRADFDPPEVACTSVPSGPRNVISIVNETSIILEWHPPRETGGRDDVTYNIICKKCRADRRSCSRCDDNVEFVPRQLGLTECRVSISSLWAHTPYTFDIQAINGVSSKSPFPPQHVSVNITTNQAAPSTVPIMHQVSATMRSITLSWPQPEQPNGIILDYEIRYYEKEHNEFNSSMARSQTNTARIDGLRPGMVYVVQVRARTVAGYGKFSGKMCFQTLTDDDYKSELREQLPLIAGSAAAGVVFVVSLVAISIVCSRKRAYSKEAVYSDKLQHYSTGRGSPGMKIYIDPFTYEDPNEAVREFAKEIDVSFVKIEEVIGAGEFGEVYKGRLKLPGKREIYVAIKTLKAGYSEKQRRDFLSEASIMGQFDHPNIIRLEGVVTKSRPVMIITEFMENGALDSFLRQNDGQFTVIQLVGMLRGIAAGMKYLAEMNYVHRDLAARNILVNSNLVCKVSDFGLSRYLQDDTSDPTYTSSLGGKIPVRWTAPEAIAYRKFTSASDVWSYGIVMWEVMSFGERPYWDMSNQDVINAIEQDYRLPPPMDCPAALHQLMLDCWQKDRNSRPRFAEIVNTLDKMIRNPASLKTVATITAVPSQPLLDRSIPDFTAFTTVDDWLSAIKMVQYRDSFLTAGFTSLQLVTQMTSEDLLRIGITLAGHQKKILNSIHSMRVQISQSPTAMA
row,Sequence,phosphorylation enrichment
1,DEEDFYQGSME [ASCC1_Y36],0.761
2,HRGHLYLAIEF [TEK_Y899_Y897H_YF],1.78
3,EEQKRYFNAMK [SCN5A_Y1494_K1493R_YF],0.353
4,EEGESHVCSSD [DCX_Y125_Y125H],0.465
5,DFPGNYSGFDD [POLR1C_Y33_YF],0.927
6,KPSLKYVTYGN [GALNTL5_Y404_G401S],0.334
7,KYRREYILSLE [GPC3_Y299_W296R],0.364
8,IETGRYEILTE,0.595
9,KELAPYDENCF [RPS19_Y48_W52C],0.628
10,YENGEYIVRQG [PRKG1_Y247_I249V],0.543
11,AAFNRYDQERF [CDC73_Y293_YF],0.402
12,RFLRGYEQDAY [HLA-A_Y137_R138E],0.358
13,KPGVNYYFRVS,0.534
14,RISGVYKLPPD [ANGPTL7_Y145],0.511
15,KHCEDYVCSYN [DSC1_Y846],0.63
16,MAQDIYRASFF [ALK_Y1278_R1275Q_YF],0.353
17,GHMYAYDWISI [BEST1_Y227_L224M],3.06

row,Sequence,phosphorylation enrichment
1,PECEWYKNGVK [TTN_Y2112],0.759
2,SNYRAYATEPH [TNNI3_Y29],0.372
3,VPDTNYTSDEE [STK33_Y439_A437T],0.562
4,KKRSVYLKVLF [CC2D2A_Y683],0.453
5,KMGNEYVTKGQ [MYH7_Y410_V406M],0.367
6,QLCVSYPGGYT [PROS1_Y259_N258S],0.588
7,QKINKYLTVPA [SLC9A1_Y683_N682K],0.282
8,SLALFYRNVYH [RBL1_Y792_K794N],0.511
9,EVQKDYEHLFK [PAM16_Y77_N76D],0.511
10,CNNFIYGGCRG [SPINT2_Y163],0.361
11,SRVTQYERDFE [SNX1_Y463],0.428
12,HQEPVCSVAFS [TBL1X_Y509_Y509C],0.804
13,GRPMDYQVSIT [OTOF_Y254],0.517
14,FQEPVYSVAFS [TBL1X_Y509_H504Y_YF],18.1
15,LNLKEYNLVGG [GNAQ_Y356],0.307
16,NQDRTYFESVR [SPEN_Y632_YF],0.507

# System: AncSZ
# Test: as above
row,Sequence,phosphorylation enrichment
1,DEEDFYQGSME [ASCC1_Y36],1.46
2,HRGHLYLAIEF [TEK_Y899_Y897H_YF],3.67
3,EEQKRYFNAMK [SCN5A_Y1494_K1493R_YF],0.591
4,EEGESHVCSSD [DCX_Y125_Y125H],0.96
5,DFPGNYSGFDD [POLR1C_Y33_YF],0.858
6,KPSLKYVTYGN [GALNTL5_Y404_G401S],0.577
7,KYRREYILSLE [GPC3_Y299_W296R],0.754
8,IETGRYEILTE,1.07
9,KELAPYDENCF [RPS19_Y48_W52C],1.32
10,YENGEYIVRQG [PRKG1_Y247_I249V],1.02
11,AAFNRYDQERF [CDC73_Y293_YF],0.665
12,RFLRGYEQDAY [HLA-A_Y137_R138E],0.71
13,KPGVNYYFRVS,1.15
14,RISGVYKLPPD [ANGPTL7_Y145],0.9
15,KHCEDYVCSYN [DSC1_Y846],1.14
16,MAQDIYRASFF [ALK_Y1278_R1275Q_YF],0.683
17,GHMYAYDWISI [BEST1_Y227_L224M],2.18

row,Sequence,phosphorylation enrichment
1,PECEWYKNGVK [TTN_Y2112],1.55
2,SNYRAYATEPH [TNNI3_Y29],0.49
3,VPDTNYTSDEE [STK33_Y439_A437T],1.23
4,KKRSVYLKVLF [CC2D2A_Y683],1.01
5,KMGNEYVTKGQ [MYH7_Y410_V406M],0.447
6,QLCVSYPGGYT [PROS1_Y259_N258S],1.03
7,QKINKYLTVPA [SLC9A1_Y683_N682K],1.77
8,SLALFYRNVYH [RBL1_Y792_K794N],0.923
9,EVQKDYEHLFK [PAM16_Y77_N76D],0.885
10,CNNFIYGGCRG [SPINT2_Y163],0.543
11,SRVTQYERDFE [SNX1_Y463],0.837
12,HQEPVCSVAFS [TBL1X_Y509_Y509C],1.07
13,GRPMDYQVSIT [OTOF_Y254],0.812
14,FQEPVYSVAFS [TBL1X_Y509_H504Y_YF],4.02
15,LNLKEYNLVGG [GNAQ_Y356],1.23
16,NQDRTYFESVR [SPEN_Y632_YF],0.852

# System: c-Src
# Test: as above
row,Sequence,phosphorylation enrichment
1,DEEDFYQGSME [ASCC1_Y36],0.603
2,HRGHLYLAIEF [TEK_Y899_Y897H_YF],2.63
3,EEQKRYFNAMK [SCN5A_Y1494_K1493R_YF],0.435
4,EEGESHVCSSD [DCX_Y125_Y125H],0.525
5,DFPGNYSGFDD [POLR1C_Y33_YF],0.548
6,KPSLKYVTYGN [GALNTL5_Y404_G401S],0.387
7,KYRREYILSLE [GPC3_Y299_W296R],0.613
8,IETGRYEILTE,0.479
9,KELAPYDENCF [RPS19_Y48_W52C],0.612
10,YENGEYIVRQG [PRKG1_Y247_I249V],0.466
11,AAFNRYDQERF [CDC73_Y293_YF],0.427
12,RFLRGYEQDAY [HLA-A_Y137_R138E],0.407
13,KPGVNYYFRVS,0.385
14,RISGVYKLPPD [ANGPTL7_Y145],0.827
15,KHCEDYVCSYN [DSC1_Y846],1.36
16,MAQDIYRASFF [ALK_Y1278_R1275Q_YF],2.28
17,GHMYAYDWISI [BEST1_Y227_L224M],1.82

row,Sequence,phosphorylation enrichment
1,PECEWYKNGVK [TTN_Y2112],0.555
2,SNYRAYATEPH [TNNI3_Y29],0.362
3,VPDTNYTSDEE [STK33_Y439_A437T],0.465
4,KKRSVYLKVLF [CC2D2A_Y683],0.391
5,KMGNEYVTKGQ [MYH7_Y410_V406M],0.344
6,QLCVSYPGGYT [PROS1_Y259_N258S],0.4
7,QKINKYLTVPA [SLC9A1_Y683_N682K],0.762
8,SLALFYRNVYH [RBL1_Y792_K794N],0.381
9,EVQKDYEHLFK [PAM16_Y77_N76D],0.491
10,CNNFIYGGCRG [SPINT2_Y163],5.21
11,SRVTQYERDFE [SNX1_Y463],0.396
12,HQEPVCSVAFS [TBL1X_Y509_Y509C],0.794
13,GRPMDYQVSIT [OTOF_Y254],0.449
14,FQEPVYSVAFS [TBL1X_Y509_H504Y_YF],7.54
15,LNLKEYNLVGG [GNAQ_Y356],0.561
16,NQDRTYFESVR [SPEN_Y632_YF],0.678
